The source of these data is patent US20200199241A1 (Chugai, published 2020).

In general, Kd refers to the constant that tells how readily two partners part at equilibrium.

Where two headings read alike, the source gives them in different places.

Assay [1] concerns the target T1, FcγRIIb (human, UniProt P31994 43-217, limits assumed).
T1 construct: SPR analyte; also called FcγIIB; CD32
T1 sequence: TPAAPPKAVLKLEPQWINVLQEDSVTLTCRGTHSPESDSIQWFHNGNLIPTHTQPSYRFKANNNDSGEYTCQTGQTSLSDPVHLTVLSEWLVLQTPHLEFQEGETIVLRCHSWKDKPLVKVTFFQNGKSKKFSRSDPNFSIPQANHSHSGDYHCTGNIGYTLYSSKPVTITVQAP
As to the kind of experiment: ratio of SPR KDs; reference IL6R-B3/IL6R-L.

Assay [2] concerns the target T2, FcγRIIa type R (human, UniProt P12318 36-217).
T2 construct: SPR analyte; also called FcγRIIaR; FcγRIIa(R)
T2 chain: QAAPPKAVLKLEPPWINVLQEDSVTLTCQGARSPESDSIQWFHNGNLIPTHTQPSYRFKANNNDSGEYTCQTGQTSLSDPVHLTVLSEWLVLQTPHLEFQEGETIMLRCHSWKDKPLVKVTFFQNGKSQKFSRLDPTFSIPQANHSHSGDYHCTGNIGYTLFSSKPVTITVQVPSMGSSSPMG
As to the kind of experiment: SPR (Biacore), antibody captured, FcγR analyte. In general terms: In SPR one partner is held on a chip, and binding of the other changes the refractive index at the surface.

Assay [3] concerns the target T3, FcγRIIIa type V (human, UniProt P08637 17-208, limits assumed).
T3 construct: SPR analyte; allotype V158 was used here; also called FcγRIIIaV; FcγRIIIa(V)
Briefly: SPR (Biacore), antibody captured, FcγR analyte.

The target of assay [4] is T4, FcγRIa (human, UniProt P12314 16-292, limits assumed).
T4 construct: SPR analyte; also called CD64
T4 sequence (P12314 16-292 limits assumed): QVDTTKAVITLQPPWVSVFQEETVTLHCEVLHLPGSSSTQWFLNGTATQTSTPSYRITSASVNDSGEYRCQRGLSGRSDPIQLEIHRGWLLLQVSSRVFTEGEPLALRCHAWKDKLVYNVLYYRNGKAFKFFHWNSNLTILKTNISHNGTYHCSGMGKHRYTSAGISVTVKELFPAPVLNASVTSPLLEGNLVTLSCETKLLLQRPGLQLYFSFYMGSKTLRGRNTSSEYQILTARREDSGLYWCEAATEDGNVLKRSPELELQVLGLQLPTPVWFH
As to the kind of experiment: SPR (Biacore), antibody captured, FcγR analyte.

For assay [5], the target named is T1, FcγRIIb. Briefly: SPR (Biacore), antibody captured, FcγR analyte.
Assay [6] concerns the target T5, FcγRIIa type H (human, UniProt P12318 36-217).
T5 construct: SPR analyte; also called FcγRIIaH
T5 sequence: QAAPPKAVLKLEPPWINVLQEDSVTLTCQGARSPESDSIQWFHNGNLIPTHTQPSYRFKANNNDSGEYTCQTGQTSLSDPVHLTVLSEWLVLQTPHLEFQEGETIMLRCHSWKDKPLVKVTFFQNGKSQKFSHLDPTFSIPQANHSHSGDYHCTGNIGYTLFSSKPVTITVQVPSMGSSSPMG
As to the kind of experiment: SPR (Biacore), antibody captured, FcγR analyte.

For assay [7], the target named is T1, FcγRIIb. Briefly: ratio of SPR KDs: KD for FcγRIIaH over KD for FcγRIIb.
Assay [8] addresses T1, FcγRIIb. As to the kind of experiment: ratio of SPR KDs: KD for FcγRIIaR over KD for FcγRIIb.
Assay [9] has as its target T5, FcγRIIa type H. As to the kind of experiment: ratio of SPR KDs; stronger receptor here FcγRIIaH; reference IL6R-B3/IL6R-L (FcγRIIaH).
Assay [10] addresses T6, human FcRn (soluble human FcRn complexed with β2-microglobulin) (human, UniProt P61769 21-119, limits assumed).
T6 construct: also called hFcRn
Briefly: SPR, antibody captured by Protein L, human FcRn as analyte, pH 7.0, 25 C.

Assay [11] has as its target T6, human FcRn (soluble human FcRn …). Described as above. This is another data set of the same source.
The target in assay [12] is T7, human FcγRIIa(H) (human, UniProt P12318 36-217).
T7 construct: also called hFcgRIIa(H); FcγRIIa type H
T7 sequence: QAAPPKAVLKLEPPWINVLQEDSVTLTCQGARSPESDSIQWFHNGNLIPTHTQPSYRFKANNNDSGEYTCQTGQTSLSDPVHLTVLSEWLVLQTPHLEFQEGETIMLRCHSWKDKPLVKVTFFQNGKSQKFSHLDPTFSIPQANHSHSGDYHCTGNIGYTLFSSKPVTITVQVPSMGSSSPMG
As to the kind of experiment: SPR, antibody captured by Protein L, human FcγR as analyte, pH 7.4, 25 C.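 Further: biacore T100 or T200 with Protein L amine-coupled on a CM4 chip, FcγRs diluted in ACES saline with polysorbate 20, buffer-only injection as blank.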

Assay [13] addresses T8, human FcγRIIa(R) (human, UniProt P12318 36-217).
T8 construct: also called hFcgRIIa(R); FcγRIIa type R
T8 chain: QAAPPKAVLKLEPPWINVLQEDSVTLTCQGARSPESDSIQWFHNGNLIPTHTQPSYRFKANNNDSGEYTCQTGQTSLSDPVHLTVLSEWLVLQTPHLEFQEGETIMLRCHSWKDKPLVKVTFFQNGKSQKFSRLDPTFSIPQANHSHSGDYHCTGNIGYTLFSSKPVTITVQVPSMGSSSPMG
The assay is described as above.

Assay [14] addresses T9, human FcγRIIIa(V) (human, UniProt P08637 17-208, limits assumed).
T9 construct: also called hFcgRIIIa(V); allotype V158
The description is as above.

Assay [15] addresses T10, human FcγRIa (human, UniProt P12314 16-292, limits assumed).
T10 construct: also called hFcgRIa; hFcgRI
Described as above.

Assay [16] concerns the target T11, mouse FcγRIV (mouse, UniProt A0A0B4J1G0 21-203).
T11 construct: bought; also called mFcgRIV; mFcgR IV; the vendor's purification tag not given
T11 sequence: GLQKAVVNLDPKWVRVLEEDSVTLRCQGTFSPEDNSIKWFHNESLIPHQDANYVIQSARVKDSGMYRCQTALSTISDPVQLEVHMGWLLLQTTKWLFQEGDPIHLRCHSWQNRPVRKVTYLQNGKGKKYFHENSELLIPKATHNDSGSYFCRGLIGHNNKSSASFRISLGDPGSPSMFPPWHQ
Briefly: SPR, antibody captured by Protein L, mouse FcγR as analyte, pH 7.4, 25 C. On the set-up: unit not given here.

In assay [17] the target is T12, mouse FcγRIIb (mouse, UniProt P08101 30-207, limits assumed).
T12 construct: bought; also called mFcgRIIb; mFcgR IIb
T12 sequence (looked up): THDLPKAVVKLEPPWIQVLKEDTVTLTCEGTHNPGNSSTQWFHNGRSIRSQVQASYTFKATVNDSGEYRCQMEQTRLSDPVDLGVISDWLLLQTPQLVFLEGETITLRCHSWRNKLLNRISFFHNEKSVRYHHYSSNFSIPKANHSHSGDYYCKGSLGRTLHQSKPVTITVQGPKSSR
Described as above. On the set-up: unit not given here.

Assay [18] deals with T13, mouse FcγRIII (mouse, UniProt P08508 31-215).
T13 construct: bought; also called mFcgRIII; mFcgR III
T13 sequence (looked up): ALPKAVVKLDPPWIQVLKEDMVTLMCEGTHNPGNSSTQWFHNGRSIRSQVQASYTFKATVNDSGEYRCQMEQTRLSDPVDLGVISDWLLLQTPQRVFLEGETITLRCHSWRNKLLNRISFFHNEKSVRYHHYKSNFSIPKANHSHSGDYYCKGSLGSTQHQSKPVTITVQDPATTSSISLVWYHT
Described as above. On the set-up: unit not given here.

The target in assay [19] is T11, mouse FcγRIV. As to the kind of experiment: SPR (Biacore T100/T200): FcγR injected over the antibody held by mouse FcRn immobilised on a CM4 chip (simultaneous binding), pH 7.4, 25 C.
Assay [20] concerns the target T12, mouse FcγRIIb. Described as above.
Assay [21] addresses T13, mouse FcγRIII. The assay is described as above.
The target in assay [22] is T14, mouse FcγRI (mouse, UniProt P26151 25-297).
T14 construct: bought; also called mFcgRI; mFcgR 1
T14 sequence (looked up): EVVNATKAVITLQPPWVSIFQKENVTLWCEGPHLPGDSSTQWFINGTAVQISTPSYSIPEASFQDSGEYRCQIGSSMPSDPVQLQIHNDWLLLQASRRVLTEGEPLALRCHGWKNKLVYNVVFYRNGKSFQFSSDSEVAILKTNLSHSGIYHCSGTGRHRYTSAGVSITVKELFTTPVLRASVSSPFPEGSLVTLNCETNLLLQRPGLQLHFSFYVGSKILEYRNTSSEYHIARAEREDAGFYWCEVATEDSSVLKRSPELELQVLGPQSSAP
Described as above.

T3 sequence (P08637 other isoform, or with tags, fused parts or gaps limits assumed): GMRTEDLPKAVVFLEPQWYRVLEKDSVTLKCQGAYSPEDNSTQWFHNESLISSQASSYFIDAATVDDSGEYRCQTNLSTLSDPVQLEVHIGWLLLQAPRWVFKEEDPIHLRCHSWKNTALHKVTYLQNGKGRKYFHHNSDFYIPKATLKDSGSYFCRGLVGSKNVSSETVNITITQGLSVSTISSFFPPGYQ
T6 sequence (chain, as listed by the source limits assumed, chain 1 of 2): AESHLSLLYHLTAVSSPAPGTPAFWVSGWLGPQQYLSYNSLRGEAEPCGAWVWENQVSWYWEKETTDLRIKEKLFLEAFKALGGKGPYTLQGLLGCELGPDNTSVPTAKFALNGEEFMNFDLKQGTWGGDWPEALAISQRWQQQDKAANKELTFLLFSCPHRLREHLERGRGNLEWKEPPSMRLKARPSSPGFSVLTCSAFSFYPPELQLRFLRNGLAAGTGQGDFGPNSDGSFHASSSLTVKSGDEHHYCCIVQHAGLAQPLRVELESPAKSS
T6 sequence (P61769 21-119 limits assumed, chain 2 of 2): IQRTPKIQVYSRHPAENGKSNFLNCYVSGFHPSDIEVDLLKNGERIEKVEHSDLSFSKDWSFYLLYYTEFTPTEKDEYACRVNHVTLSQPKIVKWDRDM
T9 sequence (P08637 other isoform, or with tags, fused parts or gaps limits assumed): as the sequence (P08637 other isoform, or with tags, fused parts or gaps limits assumed) above
T10 sequence (P12314 16-292 limits assumed): as the sequence (P12314 16-292 limits assumed) above

B1: IL6R-B3/IL6R-L (antibody, human IgG1)
heavy: not shown
light: DIQMTQSPSSLSASVGDRVTITCRASQDISSYLNWYQQKPGKAPKLLIYYTSRLHSGVPSRFSGSGSGTDFTFTISSLQPEDIATYYCQQGNTLPYTFGQGTKVEIK
notes: IL6R-G1d with K439E (EU numbering); also called parent polypeptide
As to B1, the “KD(IIb) of the parent polypeptide/KD(IIb) of altered polypeptide” value in [1] stood at 1. Also, the Kd in [2] was determined as 1100 nM; in assay [3], 330 nM; in assay [4], 0.42 nM; in assay [5], 3100 nM; in assay [6], 770 nM. Also, the “KD(IIaH)/KD(IIb)” value in [7] is 0.2. The “KD(IIaR)/KD(IIb)” value in [8] was determined as 0.3. Besides, the “KD of the stronger of FcγRIIaR/FcγRIIaH binding of the variant / that of the parent polypeptide” value in [9] came to 1.

B2: IL6R-G1d/IL6R-L (antibody, human IgG1)
heavy: not shown
light: DIQMTQSPSSLSASVGDRVTITCRASQDISSYLNWYQQKPGKAPKLLIYYTSRLHSGVPSRFSGSGSGTDFTFTISSLQPEDIATYYCQQGNTLPYTFGQGTKVEIK
notes: Anti-human IL-6 receptor antibody with the G1d constant region; also called IgG1 (IL6R-G1d)
B2: in assay [1], the “KD(IIb) of the parent polypeptide/KD(IIb) of altered polypeptide” value was 1.2. The Kd amounted to 1000 nM in [2]; 350 nM in [3]; 0.32 nM in [4]; 2600 nM in assay [5]; 670 nM in assay [6]. Further, in assay [7], the “KD(IIaH)/KD(IIb)” value is 0.3. In [8], the “KD(IIaR)/KD(IIb)” value turned out to be 0.4. Further, in assay [9], the “KD of the stronger of FcγRIIaR/FcγRIIaH binding of the variant / that of the parent polypeptide” value was found to be 0.9.

B3: antibody with VH3-IgG1-F1326 heavy chain and L(WT)-CK light chain (antibody)
heavy: QVQLQESGPGLVKPSETLSLTCAVSGHSISHDHAWSWVRQPPGEGLEWIGFISYSGITNYNPSLQGRVTISRDNSKNTLYLQMNSLRAEDTAVYYCARSLARTTAMDYWGEGTLVTVSSASTKGPSVFPLAPSSKSTSGGTAALGCLVKDYFPEPVTVSWNSGALTSGVHTFPAVLQSSGLYSLSSVVTVPSSSLGTQTYICNVNHKPSNTKVDKKVEPKSCDKTHTCPPCPAPEAAGGPSVFLFPPKPKDVLYISRTPEVTCVVVDVSHEDPEVKFNWYVDGVEVHNAKTKPREEQYNSTYRVVSVLQPLHADWLNGKEYKCKVSNKALPAPIEKTISKAKGQPREPQVYTLPPSRDELTKNQVSLTCLVKGFYPSDIAVEWESNGQPENNYKTTPPVLDSDGSFFLYSKLTVDKSRWQQGNVFSCSVMHEALHYHVTQKSLSLSP
light: not shown
notes: L234A/L235A/T250V/M252Y/T307Q/V308P/Q311A/N434Y/Y436V; copies: 2 + 2
Consider B3, for which the Kd in assay [10] and in [11] was 11 nM each time. Also, the “BINDING AMOUNT (RU)” value was 11.4 RU in assay [12], 11.7 RU in [13], 61.6 RU in [14] and 265 RU in assay [15]. The “binding amount” value worked out at 85.6 in [16], 19.2 in assay [17] and 532 in assay [18].

B4: Fv4-IgG1-F20 (VH3-IgG1-F20 and VL3-CK) (antibody)
heavy: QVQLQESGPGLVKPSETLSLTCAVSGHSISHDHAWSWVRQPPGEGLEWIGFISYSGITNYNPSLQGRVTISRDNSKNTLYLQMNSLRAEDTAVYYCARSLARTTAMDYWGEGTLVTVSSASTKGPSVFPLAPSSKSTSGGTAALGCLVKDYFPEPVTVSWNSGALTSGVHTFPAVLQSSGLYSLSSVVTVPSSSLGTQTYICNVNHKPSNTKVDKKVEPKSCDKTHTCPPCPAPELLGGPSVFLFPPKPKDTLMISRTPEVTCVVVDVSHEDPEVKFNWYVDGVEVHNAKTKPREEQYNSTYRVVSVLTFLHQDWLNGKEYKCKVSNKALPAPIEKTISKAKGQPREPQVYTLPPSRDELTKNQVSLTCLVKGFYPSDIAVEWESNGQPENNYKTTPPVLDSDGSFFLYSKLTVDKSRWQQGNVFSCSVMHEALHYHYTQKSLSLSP
light: DIQMTQSPSSLSASVGDSVTITCQASTDISSHLNWYQQKPGKAPELLIYYGSHLLSGVPSRFSGSGSGTDFTFTISSLEAEDAATYYCGQGNRLPYTFGQGTKVEIERTVAAPSVFIFPPSDEQLKSGTASVVCLLNNFYPREAKVQWKVDNALQSGNSQESVTEQDSKDSTYSLSSTLTLSKADYEKHKVYACEVTHQGLSSPVTKSFNRGEC
notes: copies: 2 + 2
With B4, the binding result in assay [19], in assay [20], in assay [21] and in [22] was “binds” throughout.
